Biological target: S. cerevisiae AAC2, P18239
Assay: binding of [35S]-labeled AAC2 to isolated mitochondria
Conditions: chain shown with the change, AAC2 lysate preincubated with apyrase, n = 3, read off a plot

Sequence of S. cerevisiae AAC2, P18239 (P18239 whole entry, the tested form may be a part): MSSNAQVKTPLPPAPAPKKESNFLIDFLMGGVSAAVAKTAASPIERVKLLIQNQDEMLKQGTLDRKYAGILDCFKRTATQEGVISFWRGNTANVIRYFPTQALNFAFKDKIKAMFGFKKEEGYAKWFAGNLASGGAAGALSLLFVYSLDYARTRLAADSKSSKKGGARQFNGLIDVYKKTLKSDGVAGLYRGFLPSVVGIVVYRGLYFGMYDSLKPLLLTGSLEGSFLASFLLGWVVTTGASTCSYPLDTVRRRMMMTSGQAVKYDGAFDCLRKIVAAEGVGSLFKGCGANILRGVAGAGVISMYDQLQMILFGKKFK

B1: Tom70 in the outer membrane of isolated yeast mitochondria (wild type), P07213 C141A (protein)
chain: MKSFITRNKTAILATVAATGTAIGAYYYYNQLQQQQQRGKKNTINKDEKKDTKDSQKETEGAKKSTAPSNPPIYPVSSNGEPDFSNKANFTAEEKDKYALALKDKGNQFFRNKKYDDAIKYYNWALELKEDPVFYSNLSAAYVSVGDLKKVVEMSTKALELKPDYSKVLLRRASANEGLGKFADAMFDLSVLSLNGDFNDASIEPMLERNLNKQAMSKLKEKFGDIDTATATPTELSTQPAKERKDKQENLPSVTSMASFFGIFKPELTFANYDESNEADKELMNGLSNLYKRSPESYDKADESFTKAARLFEEQLDKNNEDEKLKEKLAISLEHTGIFKFLKNDPLGAHEDIKKAIELFPRVNSYIYMALIMADRNDSTEYYNYFDKALKLDSNNSSVYYHRGQMNFILQNYDQAGKDFDKAKELDPENIFPYIQLACLAYRENKFDDCETLFSEAKRKFPEAPEVPNFFAEILTDKNDFDKALKQYDLAIELENKLDGIYVGIAPLVGKATLLTRNPTVENFIEATNLLEKASKLDPRSEQAKIGLAQMKLQQEDIDEAITLFEESADLARTMEEKLQAITFAEAAKVQQRIRSDPVLAKKIQETLAKLREQGLM
other: bound protein, % of control (same mitochondria without NEM, 12 min) (mitochondria pretreated with 2 mM NEM, control = untreated Tom70C141A mitochondria at 12 min): 95 % of control | other: bound protein, % of control (same mitochondria without NEM, 12 min) (no NEM, this point is the normalisation control (100%), not a comparison with wild type): 100 % of control
